Measured values: paper PMC8989513

Experiments:
Test in all cases: BLI
[1] = target: MYC(1–88 P21A), C-terminally biotinylated
[2] = target: biotinyl-MB0 peptide (MYC Box 0, aa 16–33)
[3] = target: MYC(1–88 Y24A), C-terminally biotinylated
[4] = target: C-terminally biotinylated MYC(1–88)ΔMB0
[5] = target: MYC(1–88 F23A), C-terminally biotinylated
[6] = target: C-terminally biotinylated MYC(1–88)
[7] = target: MYC(1–88 Y22A), C-terminally biotinylated

fold change of KD against wild-type MYC(1–88) [1]: > 5 fold
Kd [2]: 9.4 µM
fold change of KD against wild-type MYC(1–88) [3]: > 5 fold
Kd [4]: > 100 µM
fold change of KD against wild-type MYC(1–88) [5]: > 5 fold
Kd [6]: 3.5 µM
fold change of KD against wild-type MYC(1–88) [7]: > 5 fold
B1: PNUTS(1–148), PNUTS amino-terminal domain (PAD) (domain or fragment)
chain: MGSGPIDPKELLKGLDSFLNRDGEVKSVDGISKIFSLMKEARKMVSRCTYLNILLQTRSPEILVKFIDVGGYKLLNNWLTYSKTTNNIPLLQQILLTLQHLPLTVDHLKQNNTAKLVKQLSKSSEDEELRKLASVLVSDWMAVIRSQS
